Values of other authors as cited in publication PMC3791513.

Target: GPR77 (Homo sapiens) (UniProt Q9P296)
Sequence (Q9P296 whole entry): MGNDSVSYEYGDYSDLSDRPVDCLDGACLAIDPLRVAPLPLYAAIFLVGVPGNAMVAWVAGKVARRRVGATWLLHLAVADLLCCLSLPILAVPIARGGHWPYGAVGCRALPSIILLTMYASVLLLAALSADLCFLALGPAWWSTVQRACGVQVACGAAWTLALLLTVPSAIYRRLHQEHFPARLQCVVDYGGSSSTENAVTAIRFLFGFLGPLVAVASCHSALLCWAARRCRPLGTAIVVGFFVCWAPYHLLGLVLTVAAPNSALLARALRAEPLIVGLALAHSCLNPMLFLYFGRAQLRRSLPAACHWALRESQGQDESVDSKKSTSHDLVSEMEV

Chain of complement anaphylatoxin C5a C5a (P01031 675-754): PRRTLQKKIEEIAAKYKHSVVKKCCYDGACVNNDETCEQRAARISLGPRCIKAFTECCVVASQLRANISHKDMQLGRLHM

In the case of “complement anaphylatoxin C5a C5a (from UniProt P01031)”, the Kd is listed as 2.5 nM.
